According to patent US6497872B1, “Neural transplantation using proliferated multipotent neural stem cells and their progeny” (NeuroSpheres Holdings Ltd., priority 1991, dated 2002):

Legend:
[1] = test system: EGF-generated neurospheres; assay: Effect of growth factors on neurosphere differentiation, immunocytochemistry (Example 8); type: cell-based, mouse; conditions: paradigm 3; BDNF
Experimental: Six to 8 days after the first passage, the neurospheres were removed and centrifuged at 400 r.p.m. The EGF-containing supernatant was removed and the pellet suspended in EGF-free complete medium containing 1% FBS. Neurospheres (approximately 0.5-1.0×10^6 cells/well) were plated on poly-L-ornithine-coated (15 μg/ml) glass coverslips in 24 well Nuclon (1.0 ml/well) culture dishes. After 24 hours in culture, the coverslips were transferred to 12 well (Costar) culture dishes containing complete medium containing 0.5% FBS. The medium was changed every 4-7 days. This differentiation procedure is referred to as the “Rapid Differentiation Paradigm” or RDP.
Six to 8 days after the first passage, the neurospheres were removed and centrifuged at 400 r.p.m. The EGF-containing media was removed and the pellet was suspended in EGF-free complete medium containing 1% FBS. The neurospheres were mechanically dissociated into single cells with a fire-polished Pasteur pipette and centrifuged at 800 r.p.m. for 5 minutes. Between 0.5×10^6 and 1.0×10^6 cells were plated on poly-L-ornithine-coated (15 μg/ml) glass coverslips in 24 well Nuclon (1.0 ml/well) culture dishes. The EGF-free culture medium containing 1% FBS was changed every 4-7 days.
Neurospheres were washed free of EGF by serial transfers through changes of EGF-free medium. A single neurosphere was plated onto poly-L-ornithine-coated (15 μg/ml) glass coverslips in a 24-well plate. The culture medium used was complete medium with or without I % FBS. The medium was changed every 4-7 days.
Neurospheres were washed free of EGF by serial transfers through changes of EGF-free medium. A single neurosphere was mechanically dissociated in a 0.5 ml Eppendorf centrifuge tube and all the cells were plated onto a 35 mm culture dish. Complete medium was used with or without 1% FBS.
The effects of CNTF, FGF-2, BDNF, and retinoic acid on neurosphere differentiation were tested using the differentiation paradigms set forth in Example 7.
The effect of CNTF was assayed in paradigms 1 and 3. For both paradigms, CNTF was added either at the beginning of the experiment at a concentration of 10 ng/ml or daily at a concentration of 1 ng/ml.
Three different antibodies directed against 04, galactocerebroside (GalC) and MBP were used to study the effect of CNTF on the oligodendrocytes of paradigm 1. CNTF had no effect on the number of 04(+) cells, but there was an increase in the number of GalC(+) and MBP(+) cells compared with the control. Thus it appears that CNTF plays a role in the maturation of oligodendrocytes.
The effect of FGF-2 was tested using paradigms 2 and 4. In paradigm 2, 20 ng/ml of FGF-2 was added at the beginning of the experiment and cells were stained 7 days later. FGF-2 increased the number of GFAP(+) cells and the number of NSE(+) cells.
In paradigm 4, 20 ng/ml of FGF-2 was added at the beginning of the experiment and assayed 7-10 days later. […] It induced two different cell types to divide, neuroblasts and bipotential progenitor cells. The neuroblast produced, on average, 6 neurons while the bipotential cell produced approximately 6 neurons and a number of astrocytes.

[2] = test system: EGF-generated mouse neurospheres; assay: BDNF on single EGF-generated neurospheres (Example 12); type: cell-based; conditions: 10 ng/ml; 14-28 days in vitro; preliminary experiments
Experimental: The expression of the trk family of neurotrophin receptors in EGF-generated neurospheres was examined by northern blot analysis. Total mRNA was isolated from mouse and rat striatal EGF-generated neurospheres. […] In preliminary experiments, single EGF-generated mouse neurospheres were plated on poly-L-ornithine coated glass coverslips and cultured in the absence or presence of 10 ng/ml of BDNF. […] Activation of the trkB receptor on EGF-generated neurospheres may enhance differentiation, survival of and/or neurite outgrowth from newly generated neurons.

[3] = test system: EGF-generated precursor cells; assay: Screening of BDNF on differentiation and survival of stem cell progeny (Example 37); type: cell-based, mouse
Experimental: Precursor cells were propagated as described in Example 4 and differentiated using Paradigm 3 described in Example 7. At the time of plating the EGF-generated cells, BDNF was added at a concentration of 10 ng/ml. At 3, 7, 14, and 21 days in vitro (DIV), cells were processed for indirect immunocytochemistry. BrdU labeling was used to monitor proliferation of the precursor cells. The effects of BDNF on neurons, oligodendrocytes and astrocytes were assayed by probing the cultures with antibodies that recognize antigens found on neurons (MAP-2, NSE, NF), oligodendrocytes (O4, GalC, MBP) or astrocytes (GFAP). Cell survival was determined by counting the number of immunoreactive cells at each time point and morphological observations were made.
Cells treated with BDNF according to the methods described in Part A were probed with antibodies that recognize neural transmitters or enzymes involved in the synthesis of neural transmitters. These included TH, ChAT, substance P, GABA, somatostatin, and glutamate. In both control and BDNF-treated culture conditions, neurons tested positive for the presence of substance P and GABA.
Cells that are responsive to growth factor treatment were identified by differentiating the EGF-generated progeny as described in Example 7, paradigm 3 and at 1 DIV adding approximately 100 ng/ml of BDNF. At 1, 3, 6, 12 and 24 hours after the addition of BDNF the cells were fixed and processed for dual label immunocytochemistry. Antibodies that recognize neurons (MAP-2, NSE, NF), oligodendrocytes (O4, GalC, MBP) or astrocytes (GFAP) were used in combination with an antibody that recognizes c-fos and/or other immediate early genes.

B1: BDNF: brain-derived neurotrophic factor (protein, UniProt P23560 19-247, looked up)
Neurotrophic factor BDNF …: APMKEANIRGQGGLAYPGVRTHGTLESVNGPKAGSRGLTSLADTFEHVIEELLDEDQKVRPNEENNKDADLYTSRVMLSSQVPLEPPLLFLLEEYKNYLDAANMSMRVRRHSDPARRGELSVCDSISEWVTAADKKTAVDMSGGTVTVLEKVPVSKGQLKQYFYETKCNPMGYTKEGCRGIDKRHWNSQCRTTQSYVRALTMDSKKRIGWRFIRIDTSCVCTLTIKRGR
In the case of B1, the “neuronal branching and migration of the neurons away from the sphere” value [1] is reported as “increase”, the “number of NSE(+) neurons per neurosphere” value [1] is reported as “increase” and the “morphology of NSE(+) cells” value [2] is reported as “NSE(+) cells with extensive and highly branched processes”. The “neurite extension and branching” value ([3]; 10 ng/ml) was “dramatic increase”, the “Astrocyte and oligodendrocyte numbers versus control” value ([3]; 10 ng/ml, paradigm 3) was “not significantly altered” and the “differentiation and survival of neurons versus control” value ([3]; 10 ng/ml, paradigm 3, 3-21 DIV) was “significantly increased”. For the same molecule, the expression of c-fos ([3]; approximately 100 ng/ml at 1 DIV, 1-24 hours) was “selective increase in the expression of c-fos in neuronal cells”.
